What was measured:
FGFR1 = FGFR1 (UniProt P11362); assay: phosphorylation enrichment, bacterial display (enrichment ratio); higher = better substrate or ligand; peptides without Tyr show the background
MERTK = MERTK (UniProt Q12866); assay: as above
Hck = Hck (UniProt P08631); assay: as above
AncSZ = assay: as above
Fer (mouse) = assay: as above
FGFR3 = FGFR3 (UniProt P22607); assay: as above
Fes = Fes (UniProt P07332); assay: as above
Fyn = Fyn (UniProt P06241); assay: as above
EPHB2 = EPHB2 (UniProt P29323); assay: as above
c-Abl (mouse) = assay: as above
c-Src = assay: as above
EPHB1 = EPHB1 (UniProt P54762); assay: as above
Jak2 = Jak2 (UniProt O60674); assay: as above
Grb2 SH2 = Grb2 SH2 (UniProt P62993); assay: SH2 binding enrichment of the phosphorylated peptide, bacterial display (enrichment ratio); higher = better substrate or ligand; peptides without Tyr show the background
SHP2-C SH2 = assay: as above
c-Src SH2 = assay: as above
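Throughout, for SH2 binding enrichment of the phosphorylated peptide, bacterial display: peptide library displayed on the E. coli surface as eCPX fusions, selected cells deep-sequenced, score is each peptide's frequency after selection divided by its frequency in the input.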
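Throughout, for phosphorylation enrichment, bacterial display: 11-residue human phosphosite peptides and single-mutation variants displayed on the E. coli surface, counted by deep sequencing, each peptide's frequency after selection divided by its frequency in the unselected input library; frequency after pTyr selection over input frequency; kinase dosed for 20-30% of maximal phosphorylation in three min.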

EPHB1, sequence (P54762 whole entry, looked up): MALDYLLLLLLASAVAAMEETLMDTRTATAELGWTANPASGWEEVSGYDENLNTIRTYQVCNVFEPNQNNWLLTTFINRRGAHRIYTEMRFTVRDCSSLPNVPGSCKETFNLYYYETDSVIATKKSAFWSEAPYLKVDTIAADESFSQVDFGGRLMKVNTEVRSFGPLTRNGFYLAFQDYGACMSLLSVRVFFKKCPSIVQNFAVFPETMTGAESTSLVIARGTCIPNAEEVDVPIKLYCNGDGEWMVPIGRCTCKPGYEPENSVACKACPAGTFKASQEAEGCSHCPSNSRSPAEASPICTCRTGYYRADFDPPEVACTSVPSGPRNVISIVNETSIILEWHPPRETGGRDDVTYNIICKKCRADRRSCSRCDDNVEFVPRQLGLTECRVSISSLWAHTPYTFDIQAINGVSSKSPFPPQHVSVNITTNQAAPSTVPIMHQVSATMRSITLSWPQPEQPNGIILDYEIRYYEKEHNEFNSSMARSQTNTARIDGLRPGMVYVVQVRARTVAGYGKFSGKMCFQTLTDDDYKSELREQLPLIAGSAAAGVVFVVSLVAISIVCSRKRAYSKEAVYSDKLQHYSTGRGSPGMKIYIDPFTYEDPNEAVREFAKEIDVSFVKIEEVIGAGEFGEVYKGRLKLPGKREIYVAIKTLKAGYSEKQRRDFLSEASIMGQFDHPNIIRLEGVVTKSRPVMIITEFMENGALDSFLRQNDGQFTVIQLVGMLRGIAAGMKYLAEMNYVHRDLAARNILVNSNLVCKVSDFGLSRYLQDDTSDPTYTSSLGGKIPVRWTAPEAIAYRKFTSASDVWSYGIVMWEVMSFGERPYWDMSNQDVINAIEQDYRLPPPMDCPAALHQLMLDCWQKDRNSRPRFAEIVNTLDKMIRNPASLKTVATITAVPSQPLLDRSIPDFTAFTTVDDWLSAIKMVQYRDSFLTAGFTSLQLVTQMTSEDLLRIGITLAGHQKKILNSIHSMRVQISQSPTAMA
Grb2 SH2, sequence (P62993 whole entry, looked up): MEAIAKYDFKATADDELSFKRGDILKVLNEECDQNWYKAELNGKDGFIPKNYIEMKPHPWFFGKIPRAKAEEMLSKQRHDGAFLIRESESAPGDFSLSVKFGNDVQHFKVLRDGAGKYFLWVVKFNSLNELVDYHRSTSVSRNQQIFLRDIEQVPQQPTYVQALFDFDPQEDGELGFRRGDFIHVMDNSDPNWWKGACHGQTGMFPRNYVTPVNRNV
Fyn, sequence (P06241 whole entry, looked up): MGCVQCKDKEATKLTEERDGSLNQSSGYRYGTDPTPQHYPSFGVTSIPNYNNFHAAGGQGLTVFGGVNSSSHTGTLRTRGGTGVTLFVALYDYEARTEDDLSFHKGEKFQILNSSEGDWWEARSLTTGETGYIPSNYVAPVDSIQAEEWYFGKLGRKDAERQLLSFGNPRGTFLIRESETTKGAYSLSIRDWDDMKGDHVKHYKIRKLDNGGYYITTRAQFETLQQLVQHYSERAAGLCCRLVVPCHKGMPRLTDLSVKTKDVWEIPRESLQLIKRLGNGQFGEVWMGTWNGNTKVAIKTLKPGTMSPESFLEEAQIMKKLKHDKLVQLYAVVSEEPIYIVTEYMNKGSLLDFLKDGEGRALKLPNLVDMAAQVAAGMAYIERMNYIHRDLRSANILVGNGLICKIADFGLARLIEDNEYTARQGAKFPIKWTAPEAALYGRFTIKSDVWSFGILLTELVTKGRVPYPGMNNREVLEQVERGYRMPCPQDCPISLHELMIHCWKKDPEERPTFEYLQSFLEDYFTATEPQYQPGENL
EPHB2, sequence (P29323 whole entry, looked up): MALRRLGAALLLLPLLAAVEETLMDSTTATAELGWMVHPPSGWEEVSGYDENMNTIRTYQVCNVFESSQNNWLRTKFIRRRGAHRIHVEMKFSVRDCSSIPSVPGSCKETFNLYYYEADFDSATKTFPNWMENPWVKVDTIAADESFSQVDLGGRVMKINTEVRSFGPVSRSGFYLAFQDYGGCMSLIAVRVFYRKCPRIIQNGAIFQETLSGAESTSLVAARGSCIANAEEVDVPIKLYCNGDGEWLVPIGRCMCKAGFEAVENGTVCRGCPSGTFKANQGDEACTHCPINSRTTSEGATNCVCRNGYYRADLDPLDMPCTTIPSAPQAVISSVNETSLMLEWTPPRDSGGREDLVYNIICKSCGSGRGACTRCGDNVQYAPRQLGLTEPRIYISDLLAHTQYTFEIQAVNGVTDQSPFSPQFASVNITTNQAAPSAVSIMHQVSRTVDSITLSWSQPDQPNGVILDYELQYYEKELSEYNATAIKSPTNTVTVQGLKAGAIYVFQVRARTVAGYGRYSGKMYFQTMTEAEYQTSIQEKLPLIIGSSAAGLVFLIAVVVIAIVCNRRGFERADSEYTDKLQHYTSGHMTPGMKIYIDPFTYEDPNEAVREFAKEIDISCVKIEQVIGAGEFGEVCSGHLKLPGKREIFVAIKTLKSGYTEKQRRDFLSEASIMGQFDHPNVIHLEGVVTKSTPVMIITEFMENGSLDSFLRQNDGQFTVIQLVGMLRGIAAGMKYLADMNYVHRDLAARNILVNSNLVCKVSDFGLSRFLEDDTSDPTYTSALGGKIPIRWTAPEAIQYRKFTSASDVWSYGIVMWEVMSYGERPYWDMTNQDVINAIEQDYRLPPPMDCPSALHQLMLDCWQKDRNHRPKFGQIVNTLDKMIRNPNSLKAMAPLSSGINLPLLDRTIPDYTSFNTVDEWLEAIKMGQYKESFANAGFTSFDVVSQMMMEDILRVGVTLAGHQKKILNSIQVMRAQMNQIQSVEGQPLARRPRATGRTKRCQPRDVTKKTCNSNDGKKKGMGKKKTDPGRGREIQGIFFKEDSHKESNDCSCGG
FGFR3, sequence (P22607 whole entry, looked up): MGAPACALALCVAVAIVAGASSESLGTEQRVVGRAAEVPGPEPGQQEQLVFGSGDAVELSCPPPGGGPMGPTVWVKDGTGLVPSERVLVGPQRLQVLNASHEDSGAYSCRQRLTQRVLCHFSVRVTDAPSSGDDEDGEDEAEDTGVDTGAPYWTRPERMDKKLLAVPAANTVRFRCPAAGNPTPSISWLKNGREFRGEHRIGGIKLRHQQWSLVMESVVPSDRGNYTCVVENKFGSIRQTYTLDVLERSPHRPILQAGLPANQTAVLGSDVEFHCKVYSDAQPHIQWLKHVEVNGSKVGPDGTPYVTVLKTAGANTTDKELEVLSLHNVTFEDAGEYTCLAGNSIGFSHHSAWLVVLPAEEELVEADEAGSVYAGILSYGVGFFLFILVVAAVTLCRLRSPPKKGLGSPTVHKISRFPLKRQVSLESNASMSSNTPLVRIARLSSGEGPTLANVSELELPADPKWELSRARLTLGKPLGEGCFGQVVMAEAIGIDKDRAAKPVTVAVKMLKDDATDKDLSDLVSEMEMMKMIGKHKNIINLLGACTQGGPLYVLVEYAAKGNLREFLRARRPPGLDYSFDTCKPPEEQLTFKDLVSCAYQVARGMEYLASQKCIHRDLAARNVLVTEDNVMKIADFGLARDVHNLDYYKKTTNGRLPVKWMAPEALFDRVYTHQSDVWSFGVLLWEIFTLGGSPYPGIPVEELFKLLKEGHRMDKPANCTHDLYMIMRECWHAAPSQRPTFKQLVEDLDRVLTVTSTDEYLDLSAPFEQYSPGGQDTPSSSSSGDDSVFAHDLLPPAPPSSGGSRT
MERTK, sequence (Q12866 whole entry, looked up): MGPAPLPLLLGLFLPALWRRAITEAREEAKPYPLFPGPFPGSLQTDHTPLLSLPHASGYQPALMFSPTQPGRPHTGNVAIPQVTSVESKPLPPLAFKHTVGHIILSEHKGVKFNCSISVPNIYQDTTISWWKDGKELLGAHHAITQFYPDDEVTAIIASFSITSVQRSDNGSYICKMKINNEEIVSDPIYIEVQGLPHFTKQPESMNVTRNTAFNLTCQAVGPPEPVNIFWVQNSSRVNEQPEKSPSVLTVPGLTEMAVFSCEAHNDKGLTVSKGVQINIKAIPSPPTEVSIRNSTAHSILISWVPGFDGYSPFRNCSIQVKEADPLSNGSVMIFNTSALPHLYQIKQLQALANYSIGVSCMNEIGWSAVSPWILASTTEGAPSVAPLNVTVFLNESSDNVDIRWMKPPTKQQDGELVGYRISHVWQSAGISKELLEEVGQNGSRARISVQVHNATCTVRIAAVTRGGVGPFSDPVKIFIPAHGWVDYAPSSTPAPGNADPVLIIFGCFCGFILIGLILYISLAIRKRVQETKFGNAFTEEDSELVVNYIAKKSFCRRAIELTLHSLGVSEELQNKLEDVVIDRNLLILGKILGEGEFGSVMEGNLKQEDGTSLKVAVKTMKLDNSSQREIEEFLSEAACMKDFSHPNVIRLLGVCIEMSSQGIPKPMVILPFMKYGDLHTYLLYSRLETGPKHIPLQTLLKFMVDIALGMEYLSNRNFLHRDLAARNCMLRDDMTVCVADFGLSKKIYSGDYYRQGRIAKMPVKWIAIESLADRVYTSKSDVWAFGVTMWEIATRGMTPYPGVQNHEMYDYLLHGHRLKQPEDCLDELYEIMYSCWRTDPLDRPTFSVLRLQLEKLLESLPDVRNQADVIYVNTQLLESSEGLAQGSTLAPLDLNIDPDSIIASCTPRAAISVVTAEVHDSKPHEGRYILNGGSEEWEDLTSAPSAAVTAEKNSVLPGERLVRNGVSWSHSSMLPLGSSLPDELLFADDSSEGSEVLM

Row | Sequence | phosphorylation enrichment (FGFR1) | phosphorylation enrichment (MERTK) | phosphorylation enrichment (Hck) | phosphorylation enrichment (AncSZ) | phosphorylation enrichment (Fer (mouse)) | phosphorylation enrichment (FGFR3) | phosphorylation enrichment (Fes) | phosphorylation enrichment (Fyn) | phosphorylation enrichment (EPHB2) | phosphorylation enrichment (c-Abl (mouse)) | phosphorylation enrichment (c-Src) | phosphorylation enrichment (EPHB1) | phosphorylation enrichment (Jak2) | SH2 binding enrichment (Grb2 SH2) | SH2 binding enrichment (SHP2-C SH2) | SH2 binding enrichment (c-Src SH2)
1 | RLYARYFQGDL [PDK3_Y337] | 0.684 | 0.711 | 0.511 | 1.24 | 0.543 | 0.923 | 1.26 | 0.6 | 0.664 | 1.18 | 0.763 | 0.705 | 1.57 | 0.889 | 0.556 | 0.549
2 | RMETAYGPSVT [MXRA5_Y2717_E2716A] | 0.448 | 0.444 | 0.63 | 0.635 | 0.617 | 0.529 | 0.718 | 0.467 | 0.46 | 0.511 | 0.646 | 0.413 | 0.661 | 0.76 | 0.904 | 0.405
3 | RMLRKYQELMS [KRT74_Y425_E424K] | 0.556 | 0.485 | 0.43 | 0.643 | 0.522 | 0.402 | 0.673 | 0.509 | 0.397 | 0.455 | 0.447 | 0.419 | 0.5 | 0.712 | 0.608 | 0.438
4 | RNAAEYLLSSG [ABL1_Y139] | 0.456 | 0.294 | 0.48 | 0.765 | 0.596 | 0.446 | 0.723 | 0.35 | 0.345 | 0.353 | 0.34 | 0.38 | 0.667 | 0.998 | 0.595 | 0.566
5 | RNDLDYMDSRR [GAA_Y407_W402R] | 0.512 | 0.528 | 0.509 | 0.809 | 0.341 | 0.645 | 0.81 | 0.455 | 0.408 | 0.779 | 0.555 | 0.426 | 0.798 | 0.971 | 0.552 | 0.422
6 | RNFVRYVQGLK [VWF_Y1400] | 0.255 | 0.48 | 0.339 | 0.277 | 0.309 | 0.445 | 0.599 | 0.511 | 0.37 | 0.548 | 0.566 | 0.324 | 0.556 | 0.669 | 0.839 | 0.586
7 | RNVLVYDKLNV [ROR2_Y624] | 0.614 | 3.88 | 13.9 | 0.933 | 3.9 | 0.787 | 0.64 | 5.08 | 1.97 | 2.12 | 3.99 | 1.97 | 0.632 | 1.06 | 0.535 | 0.908
8 | RPLVVYPWTQR [HBB_Y36_L32P] | 0.473 | 0.389 | 0.407 | 0.728 | 0.358 | 0.45 | 0.748 | 0.468 | 0.695 | 0.509 | 0.446 | 1.11 | 0.445 | 0.809 | 0.718 | 0.623
9 | RPQDGYRIVQH [PTPRT_Y1329] | 0.557 | 0.493 | 0.586 | 0.797 | 0.591 | 0.625 | 0.708 | 0.554 | 0.565 | 0.74 | 0.649 | 0.406 | 0.534 | 0.915 | 0.476 | 0.508
10 | RPSRQYATLDV [SCAMP3_Y35] | 0.37 | 0.379 | 0.376 | 0.373 | 0.313 | 0.336 | 0.461 | 0.315 | 0.33 | 0.381 | 0.319 | 0.331 | 0.42 | 0.899 | 6.79 | 9.6
11 | RRAKGYPIDLF [ITGB2_Y125_YF] | 1.06 | 0.878 | 0.57 | 4.21 | 1.08 | 0.677 | 0.993 | 0.563 | 0.605 | 0.771 | 1.25 | 0.566 | 1.64 | 0.573 | 0.687 | 0.427
12 | RRFLFYFSFLL [PTEN_Y177_V175L_YF] | 0.472 | 0.53 | 0.541 | 0.691 | 0.398 | 0.508 | 0.794 | 0.567 | 0.608 | 0.613 | 0.683 | 0.493 | 0.727 | 0.821 | 0.478 | 0.519
13 | RRNEIYEIKVD [LGR5_Y387_H383R] | 0.923 | 0.468 | 5.36 | 1.09 | 0.757 | 0.771 | 1.36 | 5.59 | 1.4 | 0.574 | 4.83 | 0.751 | 0.669 | 0.986 | 0.692 | 0.426
14 | RRVLVYVGRGA [QDPR_Y16_G17V] | 0.797 | 0.762 | 0.506 | 1.1 | 0.85 | 0.648 | 0.799 | 0.716 | 0.858 | 0.798 | 0.788 | 0.63 | 1.03 | 0.657 | 0.818 | 0.414
15 | RSAGKDDVFLI [MECP2_Y120_Y120D_YF] | 0.629 | 0.494 | 0.683 | 0.842 | 0.511 | 0.894 | 1.16 | 0.557 | 0.75 | 0.872 | 0.601 | 0.646 | 0.706 | 1.01 | 0.861 | 0.481
16 | RSFLSYYTSHV [NEFL_Y442_P440L] | 0.575 | 1.44 | 0.421 | 0.996 | 0.491 | 0.834 | 0.876 | 0.692 | 0.761 | 0.606 | 0.561 | 0.998 | 1.71 | 1.12 | 1.63 | 1.66
17 | RTESQYQENRG [LRCH3_Y354_R350T] | 0.499 | 0.688 | 0.653 | 0.792 | 0.539 | 0.591 | 1 | 0.578 | 0.414 | 0.799 | 0.557 | 0.675 | 1.26 | 1.19 | 0.862 | 0.554

Row | Sequence | phosphorylation enrichment (FGFR1) | phosphorylation enrichment (MERTK) | phosphorylation enrichment (Hck) | phosphorylation enrichment (AncSZ) | phosphorylation enrichment (Fer (mouse)) | phosphorylation enrichment (FGFR3) | phosphorylation enrichment (Fes) | phosphorylation enrichment (Fyn) | phosphorylation enrichment (EPHB2) | phosphorylation enrichment (c-Abl (mouse)) | phosphorylation enrichment (c-Src) | phosphorylation enrichment (EPHB1) | phosphorylation enrichment (Jak2) | SH2 binding enrichment (Grb2 SH2) | SH2 binding enrichment (SHP2-C SH2) | SH2 binding enrichment (c-Src SH2)
18 | RTLSEYARPHV [RERE_Y1259] | 0.606 | 0.443 | 0.683 | 1.14 | 0.468 | 0.51 | 1.11 | 0.668 | 0.852 | 31.7 | 0.454 | 0.832 | 0.871 | 0.755 | 0.532 | 0.553
19 | RVGNMYVRGLS [ABCG8_Y209] | 0.58 | 0.395 | 0.675 | 0.672 | 0.468 | 0.682 | 0.839 | 0.574 | 0.471 | 0.494 | 0.331 | 0.457 | 0.709 | 0.994 | 0.732 | 0.564
20 | RVLQLYGCSPS [ASTL_Y279_K277Q] | 1.06 | 0.576 | 2.33 | 1.69 | 1.15 | 1.26 | 1.72 | 1.54 | 1.71 | 1.38 | 1.38 | 1.3 | 1.48 | 0.853 | 0.727 | 0.493
21 | SAVVPYEPPEV [TP53_Y220_V216A] | 0.586 | 0.409 | 0.513 | 1.23 | 0.479 | 0.761 | 1.21 | 0.556 | 0.608 | 0.649 | 0.484 | 0.643 | 0.998 | 0.806 | 0.502 | 0.643
22 | SDFSSYARTSI [TERT_Y949_YF] | 0.514 | 0.477 | 0.453 | 0.877 | 0.56 | 0.613 | 0.834 | 0.488 | 0.625 | 0.55 | 0.506 | 0.546 | 0.798 | 0.7 | 0.805 | 0.586
23 | SDVWSYGVTMW [ZAP70_Y525] | 0.557 | 0.502 | 0.695 | 1.15 | 0.63 | 0.847 | 1.39 | 0.477 | 0.695 | 0.979 | 0.54 | 0.688 | 1.26 | 0.84 | 0.576 | 0.614
24 | SEDANYKRVSC [TTC3_Y1288] | 0.418 | 0.449 | 0.532 | 0.886 | 0.491 | 0.696 | 1.02 | 0.612 | 0.55 | 0.82 | 0.442 | 0.558 | 1.06 | 1.15 | 0.646 | 0.594
25 | SENAFYLSPDI [COL6A3_Y2827] | 0.762 | 0.754 | 0.687 | 1.69 | 0.724 | 0.841 | 1.21 | 0.607 | 0.687 | 1.49 | 0.607 | 0.793 | 1.68 | 0.739 | 0.698 | 0.475
26 | SEPDLYYDPRG [PKP1_Y160_C161Y] | 10.8 | 7.05 | 8.75 | 2.91 | 1.65 | 8.64 | 1.16 | 5.41 | 13.6 | 3.09 | 4.93 | 14.3 | 3.35 | 0.864 | 0.679 | 0.524
27 | SFHSSYSEIKD [DCLRE1C_Y322] | 0.554 | 0.57 | 0.51 | 0.738 | 0.52 | 0.681 | 0.744 | 0.512 | 0.532 | 0.448 | 0.506 | 0.435 | 0.559 | 0.982 | 4.96 | 22.5
28 | SFKNKYGMVAQ [APOB_Y276_YF] | 0.335 | 0.341 | 0.354 | 0.42 | 0.335 | 0.39 | 0.574 | 0.353 | 0.354 | 0.465 | 0.375 | 0.302 | 0.43 | 0.934 | 0.543 | 0.455
29 | SFPHEYGSQEG [RBM10_Y48_R46H_YF] | 0.565 | 0.459 | 0.679 | 0.768 | 0.47 | 1.46 | 0.87 | 0.515 | 0.602 | 0.583 | 0.395 | 0.485 | 0.645 | 0.93 | 0.623 | 0.643
30 | SGGCSYGSGGG [KRT1_Y539_G537C] | 0.402 | 0.346 | 0.446 | 0.803 | 0.462 | 0.561 | 0.916 | 0.381 | 0.478 | 0.637 | 0.394 | 0.475 | 0.773 | 0.782 | 0.655 | 0.462
31 | SGIFQYNIAKF [FOXL2_Y83_I84N_YF] | 0.486 | 0.435 | 0.494 | 0.786 | 0.48 | 0.691 | 1.01 | 0.472 | 0.541 | 0.739 | 0.432 | 0.59 | 0.876 | 1.21 | 1.11 | 0.899
32 | SGSWSYNTSTE [SELE_Y24_A21S] | 0.527 | 0.503 | 0.536 | 0.925 | 0.393 | 0.768 | 1.07 | 0.5 | 0.586 | 0.787 | 0.503 | 0.56 | 0.968 | 0.826 | 0.565 | 0.55
33 | SGVSFYINLCQ [IGF2R_Y2025_N2020S_YF] | 0.787 | 0.686 | 0.481 | 1.5 | 0.529 | 1.19 | 1.46 | 0.361 | 0.695 | 1.04 | 0.522 | 0.806 | 1.61 | 2.21 | 1.32 | 1.48

Source: the supplement of paper PMC10065799, “High-throughput profiling of sequence recognition by tyrosine kinases and SH2 domains using bacterial peptide display” (eLife, 2023)
